The record followed here is paper PMC7568541.

The test system of one series is SIRT6(270-355) CTD. Nature of the series: EMSA. The note with it: EMSA: 10 mM Tris, 50 mM NaCl (100 mM for DNA), 0.5 mM TCEP, 6% glycerol, pH 7.4, on ice, 50 nM NCP, FRET: 50 mM Tris, pH 7.5, 1 nM …. Background: Mobility shift assays separate free from complexed probe on a gel.
In series [1] the target is recombinant 601-positioned nucleosome core particle (X. laevis histones, 147-bp 601 DNA) (x. laevis). Nature of the series: native gel or EMSA; competition: SIRT6:NCP complexes pre-formed with 100 nM SIRT6, then competed with LANA peptide (300 nM to 100 µM); IC50 from percent inhibition.
The target is the same in series [2]. Nature of the series: native gel or EMSA.
For series [3], the system named is LANA peptide (Kaposi's sarcoma-associated herpesvirus). Put plainly: competition EMSA. The note with it: EMSA: 10 mM Tris, 50 mM NaCl (100 mM for DNA), 0.5 mM TCEP, 6% glycerol, pH 7.4, on ice, 50 nM NCP, FRET: 50 mM Tris, pH 7.5, 1 nM ….
A further series deals with SIRT6. Nature of the series: EMSA. The conditions noted are these: apparent, both complexes as bound, 50 nM NCP, EMSA: 10 mM Tris, 50 mM NaCl (100 mM for DNA), 0.5 mM TCEP, 6% glycerol, pH 7.4, on ice, FRET: 50 mM Tris, pH 7.5, 1 nM ….
In a further series the test system is SIRT6(1-301). Put plainly: EMSA. The conditions noted are these: 139 nM in text, EMSA: 10 mM Tris, 50 mM NaCl (100 mM for DNA), 0.5 mM TCEP, 6% glycerol, pH 7.4, on ice, 50 nM NCP, FRET: 50 mM Tris, pH 7.5, 1 nM ….
The test system of another series is SIRT6(AAA). Put plainly: EMSA. The conditions noted are these: EMSA: 10 mM Tris, 50 mM NaCl (100 mM for DNA), 0.5 mM TCEP, 6% glycerol, pH 7.4, on ice, 50 nM NCP, FRET: 50 mM Tris, pH 7.5, 1 nM ….
The subject of another series is SIRT6 25N mutant. Put plainly: EMSA. The note with it: apparent, n=1, EMSA: 10 mM Tris, 50 mM NaCl (100 mM for DNA), 0.5 mM TCEP, 6% glycerol, pH 7.4, on ice, 50 nM NCP, FRET: 50 mM Tris, pH 7.5, 1 nM ….
Another series concerns SIRT6 27R mutant. Nature of the series: EMSA. The note with it: apparent, n=1, EMSA: 10 mM Tris, 50 mM NaCl (100 mM for DNA), 0.5 mM TCEP, 6% glycerol, pH 7.4, on ice, 50 nM NCP, FRET: 50 mM Tris, pH 7.5, 1 nM ….
Another series deals with SIRT6(1-292). Nature of the series: EMSA. The note with it: EMSA: 10 mM Tris, 50 mM NaCl (100 mM for DNA), 0.5 mM TCEP, 6% glycerol, pH 7.4, on ice, 50 nM NCP, FRET: 50 mM Tris, pH 7.5, 1 nM ….
Series [4] has as its system LANA peptide (Kaposi's sarcoma-associated herpesvirus). Put plainly: competition EMSA. The note with it: EMSA: 10 mM Tris, 50 mM NaCl (100 mM for DNA), 0.5 mM TCEP, 6% glycerol, pH 7.4, on ice, 50 nM NCP, FRET: 50 mM Tris, pH 7.5, 1 nM …. The source holds these as a separate data set.
Another series concerns SIRT6(TQ3). Put plainly: FRET. The conditions noted are these: EMSA: 10 mM Tris, 50 mM NaCl (100 mM for DNA), 0.5 mM TCEP, 6% glycerol, pH 7.4, on ice, 50 nM NCP, FRET: 50 mM Tris, pH 7.5, 1 nM ….
In series [5] the target is nucleosome core particle with four alanine mutations at the H2A acidic patch (x. laevis). Put plainly: native gel or EMSA; 50 nM recombinant nucleosomes with varying SIRT6 protein; 10 mM Tris, 50 mM NaCl, 0.5 mM TCEP, 6% glycerol, pH 7.4, on ice >15 min; SYBR Safe; apparent KD, shifted complexes together as bound fraction, ligand-depleted (quadratic) fit.
In series [6] the target is recombinant 601-positioned nucleosome core particle (X. laevis histones, 147-bp 601 DNA) (x. laevis). The series is described as above.
The target is the same in series [7]. Nature of the series: FRET or BRET; 1 nM Cy3-labeled nucleosomes titrated with SIRT6^(TQ3) in solution; 50 mM Tris, 50 mM NaCl, 0.5 mM TCEP, pH 7.5; KD(High) fitted from 0-5 nM (ligand-depleted), KD(Low) from 5-500 nM (specific binding). On the technique in general: Bioluminescence resonance energy transfer reports proximity on the nanometre scale.
For series [8] the target is unchanged. Nature of the series: native gel or EMSA; TAMRA-labeled SIRT6 with NCP; TAMRA and SYBR Safe fluorescence scanned in the same gel, TAMRA signal normalized to DNA content; gel blotted for histone H3.
Series [9] addresses NCP with the high affinity site saturated with full-length SIRT6 (1:1 SIRT6:NCP complex) (x. laevis | not stated) (UniProt Q8N6T7). Nature of the series: native gel or EMSA; high affinity site on NCPs saturated with 10 nM full-length SIRT6, then increasing SIRT6^(1–292); fraction bound from the loss of free nucleosomes.

Chain of Latency Associated Nuclear Antigen (LANA) peptide from Kaposi’s sarcoma-associated herpesvirus (Q9QR71 1-23): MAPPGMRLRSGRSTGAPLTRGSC

601 DNA (147 bp) had a Kd in the series with SIRT6(270-355) CTD (100 mM NaCl, 50 nM DNA) of 450 nM.
With “Latency Associated Nuclear Antigen (LANA) peptide from Kaposi’s sarcoma-associated herpesvirus”, the IC50 in series [1] was determined as 9.5 µM; in series [2], 6.1 µM.
In the case of NCP (601, 147 bp), the IC50 in [3] turned out to be 6.1 µM; in series [4], 9.5 µM. Moreover, the Kd worked out at 13 nM in the series with SIRT6; 140 nM in the series with SIRT6(1-301); 400 nM with SIRT6(270-355) CTD; 97 nM in the series on SIRT6(AAA); 14 nM in the series with SIRT6 25N mutant; 14 nM with SIRT6 27R mutant. In addition, the Kd in the series with SIRT6(1-292) (254 nM in text) is 250 nM; in the series on SIRT6(1-292) it was 40 nM.
Consider NCP(Cy3), for which the Kd in the series with SIRT6(TQ3) (high-affinity site) was 0.46 nM; with SIRT6(TQ3) (low-affinity site) it was 30 nM.
With “SIRT6 (full-length, His-tagged) (from UniProt Q8N6T7 1-355) (enzyme)”, the Kd worked out at 140 nM in [5] and 13 nM in [6].
In the case of “SIRT6 C-terminal domain (residues 270–355) (from UniProt Q8N6T7 270-355) (domain or fragment)”, the Kd in series [6] worked out at 400 nM.
Turning to “SIRT6 labeled with Tide Quencher 3 (TQ3) at cysteine 18 (from UniProt Q8N6T7 2-355) (enzyme)”, in [7], the KD(High), high affinity site turned out to be 460 pM and the KD(Low), low affinity site came to 30 nM.
On to “SIRT6 labeled with tetramethylrhodamine (TAMRA) at cysteine 320 (from UniProt Q8N6T7 2-355) (enzyme)”, for which the stoichiometry N in series [8] was found to be 2.
Take “SIRT6 residues 1–292 (C-terminal truncation) (from UniProt Q8N6T7 1-292) (domain or fragment)”: in series [6], the Kd worked out at 250 nM and the stoichiometry N came to 2. In series [9], the KD(Low), low affinity site was found to be 40 nM.
For “SIRT6 residues 1–301 (C-terminal truncation) (from UniProt Q8N6T7 1-301) (domain or fragment)”, in series [6], the Kd worked out at 140 nM and the stoichiometry N is 2.
As for “SIRT6 with alanine substitutions at S45, N206 and N208 (from UniProt Q8N6T7 2-355) (enzyme)”, the Kd in [6] is 97 nM.

As usually defined, the IC50 is the point on the concentration scale where inhibition reaches its midpoint. Broadly, the stoichiometry N is the number of molecules, sites or subunits per partner or assembly.
